According to the Human Domainome abundance scans (Beltran et al. 2025):
± gives the uncertainty stated by the source.

B1: KAT8 regulatory NSL complex subunit 2, residues 28 to 91; numbered along this chain, Q9H9L4 (parent)
chain: CAFTHRPCSHPRLEGQEFCIKHILEDKNAPFKQCSYISTKNGKRCPNAAPKPEKKDGVSFCAEH

Variants of: B1
Assay: abundance fitness (aPCA) (normalised: wild type 0, dead -1); higher = more abundant; growth selection in yeast, the domain comes from the species named
Conditions: Homo sapiens
Variant CAFTHRPCSHPRLEGQEFCIKHILEDKNAPFKQCSYISTWNGKRCPNAAPKPEKKDGVSFCAEH [K40W] has an abundance fitness of -0.401 ± 0.38.
With CAFTHRPCSHPRLEGQEFCIKHILEDKNAPFKQCSYISTYNGKRCPNAAPKPEKKDGVSFCAEH [K40Y] the abundance fitness was -0.052 ± 0.19.
CAFTHRPCSHPRLEGQEFCIKHILEDKNAPFKQCSYISTKAGKRCPNAAPKPEKKDGVSFCAEH [N41A] showed an abundance fitness of -0.058 ± 0.053.
In the case of CAFTHRPCSHPRLEGQEFCIKHILEDKNAPFKQCSYISTKCGKRCPNAAPKPEKKDGVSFCAEH [N41C], the abundance fitness is reported as -0.161 ± 0.09.
CAFTHRPCSHPRLEGQEFCIKHILEDKNAPFKQCSYISTKEGKRCPNAAPKPEKKDGVSFCAEH [N41E] showed an abundance fitness of -0.005 ± 0.07.
Work on CAFTHRPCSHPRLEGQEFCIKHILEDKNAPFKQCSYISTKFGKRCPNAAPKPEKKDGVSFCAEH [N41F] yielded an abundance fitness of -0.086 ± 0.099.
CAFTHRPCSHPRLEGQEFCIKHILEDKNAPFKQCSYISTKGGKRCPNAAPKPEKKDGVSFCAEH [N41G] showed an abundance fitness of -0.03 ± 0.053.
Variant CAFTHRPCSHPRLEGQEFCIKHILEDKNAPFKQCSYISTKHGKRCPNAAPKPEKKDGVSFCAEH [N41H] has an abundance fitness of -0.115 ± 0.097.
In the case of CAFTHRPCSHPRLEGQEFCIKHILEDKNAPFKQCSYISTKKGKRCPNAAPKPEKKDGVSFCAEH [N41K], the abundance fitness is reported as 0.019 ± 0.11.
CAFTHRPCSHPRLEGQEFCIKHILEDKNAPFKQCSYISTKLGKRCPNAAPKPEKKDGVSFCAEH [N41L] gave an abundance fitness of -0.09 ± 0.06.
For CAFTHRPCSHPRLEGQEFCIKHILEDKNAPFKQCSYISTKMGKRCPNAAPKPEKKDGVSFCAEH [N41M], the abundance fitness was -0.079 ± 0.1.
In the case of CAFTHRPCSHPRLEGQEFCIKHILEDKNAPFKQCSYISTKPGKRCPNAAPKPEKKDGVSFCAEH [N41P], the abundance fitness is reported as -0.13 ± 0.073.
Work on CAFTHRPCSHPRLEGQEFCIKHILEDKNAPFKQCSYISTKQGKRCPNAAPKPEKKDGVSFCAEH [N41Q] yielded an abundance fitness of -0.098 ± 0.071.
CAFTHRPCSHPRLEGQEFCIKHILEDKNAPFKQCSYISTKRGKRCPNAAPKPEKKDGVSFCAEH [N41R] showed an abundance fitness of -0.06 ± 0.048.
With CAFTHRPCSHPRLEGQEFCIKHILEDKNAPFKQCSYISTKSGKRCPNAAPKPEKKDGVSFCAEH [N41S] the abundance fitness was -0.052 ± 0.054.
Work on CAFTHRPCSHPRLEGQEFCIKHILEDKNAPFKQCSYISTKTGKRCPNAAPKPEKKDGVSFCAEH [N41T] yielded an abundance fitness of -0.195 ± 0.075.
In the case of CAFTHRPCSHPRLEGQEFCIKHILEDKNAPFKQCSYISTKVGKRCPNAAPKPEKKDGVSFCAEH [N41V], the abundance fitness is reported as -0.031 ± 0.05.
For CAFTHRPCSHPRLEGQEFCIKHILEDKNAPFKQCSYISTKWGKRCPNAAPKPEKKDGVSFCAEH [N41W], the abundance fitness was -0.171 ± 0.07.
CAFTHRPCSHPRLEGQEFCIKHILEDKNAPFKQCSYISTKYGKRCPNAAPKPEKKDGVSFCAEH [N41Y] showed an abundance fitness of -0.365 ± 0.13.
With CAFTHRPCSHPRLEGQEFCIKHILEDKNAPFKQCSYISTKNAKRCPNAAPKPEKKDGVSFCAEH [G42A] the abundance fitness was -0.053 ± 0.06.
With CAFTHRPCSHPRLEGQEFCIKHILEDKNAPFKQCSYISTKNCKRCPNAAPKPEKKDGVSFCAEH [G42C] the abundance fitness was -0.105 ± 0.066.
Variant CAFTHRPCSHPRLEGQEFCIKHILEDKNAPFKQCSYISTKNDKRCPNAAPKPEKKDGVSFCAEH [G42D] has an abundance fitness of -0.092 ± 0.075.
For CAFTHRPCSHPRLEGQEFCIKHILEDKNAPFKQCSYISTKNEKRCPNAAPKPEKKDGVSFCAEH [G42E], the abundance fitness was -0.005 ± 0.075.
In the case of CAFTHRPCSHPRLEGQEFCIKHILEDKNAPFKQCSYISTKNFKRCPNAAPKPEKKDGVSFCAEH [G42F], the abundance fitness is reported as -0.22 ± 0.097.
For CAFTHRPCSHPRLEGQEFCIKHILEDKNAPFKQCSYISTKNHKRCPNAAPKPEKKDGVSFCAEH [G42H], the abundance fitness was -0.141 ± 0.092.
Work on CAFTHRPCSHPRLEGQEFCIKHILEDKNAPFKQCSYISTKNIKRCPNAAPKPEKKDGVSFCAEH [G42I] yielded an abundance fitness of -0.206 ± 0.097.
Variant CAFTHRPCSHPRLEGQEFCIKHILEDKNAPFKQCSYISTKNKKRCPNAAPKPEKKDGVSFCAEH [G42K] has an abundance fitness of 0.051 ± 0.078.
Work on CAFTHRPCSHPRLEGQEFCIKHILEDKNAPFKQCSYISTKNLKRCPNAAPKPEKKDGVSFCAEH [G42L] yielded an abundance fitness of -0.125 ± 0.052.
Work on CAFTHRPCSHPRLEGQEFCIKHILEDKNAPFKQCSYISTKNMKRCPNAAPKPEKKDGVSFCAEH [G42M] yielded an abundance fitness of -0.139 ± 0.087.
In the case of CAFTHRPCSHPRLEGQEFCIKHILEDKNAPFKQCSYISTKNNKRCPNAAPKPEKKDGVSFCAEH [G42N], the abundance fitness is reported as -0.117 ± 0.087.
For CAFTHRPCSHPRLEGQEFCIKHILEDKNAPFKQCSYISTKNPKRCPNAAPKPEKKDGVSFCAEH [G42P], the abundance fitness was -0.1 ± 0.07.
Work on CAFTHRPCSHPRLEGQEFCIKHILEDKNAPFKQCSYISTKNQKRCPNAAPKPEKKDGVSFCAEH [G42Q] yielded an abundance fitness of -0.008 ± 0.15.
In the case of CAFTHRPCSHPRLEGQEFCIKHILEDKNAPFKQCSYISTKNRKRCPNAAPKPEKKDGVSFCAEH [G42R], the abundance fitness is reported as -0.038 ± 0.048.
Variant CAFTHRPCSHPRLEGQEFCIKHILEDKNAPFKQCSYISTKNSKRCPNAAPKPEKKDGVSFCAEH [G42S] has an abundance fitness of -0.063 ± 0.046.
For CAFTHRPCSHPRLEGQEFCIKHILEDKNAPFKQCSYISTKNTKRCPNAAPKPEKKDGVSFCAEH [G42T], the abundance fitness was -0.055 ± 0.073.
Work on CAFTHRPCSHPRLEGQEFCIKHILEDKNAPFKQCSYISTKNVKRCPNAAPKPEKKDGVSFCAEH [G42V] yielded an abundance fitness of -0.108 ± 0.054.
For CAFTHRPCSHPRLEGQEFCIKHILEDKNAPFKQCSYISTKNWKRCPNAAPKPEKKDGVSFCAEH [G42W], the abundance fitness was -0.246 ± 0.083.
CAFTHRPCSHPRLEGQEFCIKHILEDKNAPFKQCSYISTKNYKRCPNAAPKPEKKDGVSFCAEH [G42Y] gave an abundance fitness of -0.094 ± 0.072.
CAFTHRPCSHPRLEGQEFCIKHILEDKNAPFKQCSYISTKNGARCPNAAPKPEKKDGVSFCAEH [K43A] gave an abundance fitness of -0.117 ± 0.056.
In the case of CAFTHRPCSHPRLEGQEFCIKHILEDKNAPFKQCSYISTKNGCRCPNAAPKPEKKDGVSFCAEH [K43C], the abundance fitness is reported as -0.141 ± 0.08.
Work on CAFTHRPCSHPRLEGQEFCIKHILEDKNAPFKQCSYISTKNGDRCPNAAPKPEKKDGVSFCAEH [K43D] yielded an abundance fitness of -0.04 ± 0.12.
For CAFTHRPCSHPRLEGQEFCIKHILEDKNAPFKQCSYISTKNGERCPNAAPKPEKKDGVSFCAEH [K43E], the abundance fitness was -0.044 ± 0.078.
